Test results taken from patent US20090155176A1.

Assays:
Conditions in all cases: remark: other sources report otherwise
[1] = biological target: T1, LFA-1 (lymphocyte function-associated antigen-1), purified heterodimer captured on ELISA plates (human), P20701
[2] = biological target: T1, LFA-1 (lymphocyte function-associated …); experiment: LFA-1/ICAM-1 ELISA: sICAM-1 titrated against ICAM-1-Ig on antibody-captured LFA-1; reference compound 3 (2 nM IC50)
[3] = biological target: T1, LFA-1 (lymphocyte function-associated …); experiment: LFA-1/small molecule ELISA: sICAM-1 titrated against 25 nM fluorescein-labelled compound 2B on antibody-captured LFA-1

T1 sequence (P20701 26-1170 limits assumed, form in doubt, chain 1 of 2): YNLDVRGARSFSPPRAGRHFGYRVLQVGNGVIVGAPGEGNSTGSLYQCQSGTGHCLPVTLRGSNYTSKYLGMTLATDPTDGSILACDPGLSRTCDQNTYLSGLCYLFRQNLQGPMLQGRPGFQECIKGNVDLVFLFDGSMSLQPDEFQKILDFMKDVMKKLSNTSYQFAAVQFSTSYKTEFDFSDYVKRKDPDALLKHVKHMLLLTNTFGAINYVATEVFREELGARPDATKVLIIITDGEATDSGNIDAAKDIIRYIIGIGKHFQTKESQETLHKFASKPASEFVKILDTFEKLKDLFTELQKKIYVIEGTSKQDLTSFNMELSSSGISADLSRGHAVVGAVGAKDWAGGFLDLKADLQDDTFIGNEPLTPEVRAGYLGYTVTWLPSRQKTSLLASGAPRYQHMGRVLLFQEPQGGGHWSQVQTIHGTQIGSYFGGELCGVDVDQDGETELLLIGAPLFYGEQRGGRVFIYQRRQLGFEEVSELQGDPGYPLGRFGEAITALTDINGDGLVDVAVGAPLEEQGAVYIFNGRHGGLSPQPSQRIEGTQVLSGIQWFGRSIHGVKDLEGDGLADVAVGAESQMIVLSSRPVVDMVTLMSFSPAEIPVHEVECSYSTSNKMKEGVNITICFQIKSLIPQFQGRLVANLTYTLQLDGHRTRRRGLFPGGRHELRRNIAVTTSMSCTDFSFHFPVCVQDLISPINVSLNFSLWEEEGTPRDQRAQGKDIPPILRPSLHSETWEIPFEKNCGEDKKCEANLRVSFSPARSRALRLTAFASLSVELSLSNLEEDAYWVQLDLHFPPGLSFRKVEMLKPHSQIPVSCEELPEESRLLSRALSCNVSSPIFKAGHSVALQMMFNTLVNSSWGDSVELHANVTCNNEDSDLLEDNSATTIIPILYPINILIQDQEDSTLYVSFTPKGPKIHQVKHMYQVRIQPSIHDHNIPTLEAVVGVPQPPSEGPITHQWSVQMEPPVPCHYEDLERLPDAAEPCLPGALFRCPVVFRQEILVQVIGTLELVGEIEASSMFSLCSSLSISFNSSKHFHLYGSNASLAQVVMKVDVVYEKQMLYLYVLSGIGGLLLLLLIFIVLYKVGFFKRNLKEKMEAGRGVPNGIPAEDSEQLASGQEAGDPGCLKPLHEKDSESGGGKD
T1 sequence (P05107 23-769 limits assumed, form in doubt, chain 2 of 2, further chain): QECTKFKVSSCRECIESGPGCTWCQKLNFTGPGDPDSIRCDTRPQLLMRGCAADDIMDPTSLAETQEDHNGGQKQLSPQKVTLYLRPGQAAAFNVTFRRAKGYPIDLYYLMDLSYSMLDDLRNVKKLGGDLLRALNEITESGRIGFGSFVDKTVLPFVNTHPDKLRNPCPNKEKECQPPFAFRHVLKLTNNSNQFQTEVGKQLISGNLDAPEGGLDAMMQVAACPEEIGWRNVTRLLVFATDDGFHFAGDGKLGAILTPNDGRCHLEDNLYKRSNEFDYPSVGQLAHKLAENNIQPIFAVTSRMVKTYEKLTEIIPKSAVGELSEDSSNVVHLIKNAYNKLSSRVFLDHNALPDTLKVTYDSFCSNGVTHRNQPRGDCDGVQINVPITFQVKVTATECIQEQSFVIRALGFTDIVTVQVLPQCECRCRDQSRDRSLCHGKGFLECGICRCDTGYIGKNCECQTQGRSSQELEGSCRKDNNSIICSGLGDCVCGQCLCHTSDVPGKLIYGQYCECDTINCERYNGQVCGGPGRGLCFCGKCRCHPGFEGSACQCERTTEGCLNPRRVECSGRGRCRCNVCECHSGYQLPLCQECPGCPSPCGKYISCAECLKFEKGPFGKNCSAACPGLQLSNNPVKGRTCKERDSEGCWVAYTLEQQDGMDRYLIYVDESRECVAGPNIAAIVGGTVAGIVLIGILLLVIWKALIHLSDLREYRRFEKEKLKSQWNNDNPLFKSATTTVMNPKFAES

Schild regression y-intercept [1]: 8.51
fold IC50 against compound 3 [2]: > 100 fold
IC50 [3]: 1200 nM
B1: sICAM-1 (soluble ICAM-1), P05362 28-480 (ligand, UniProt P05362 28-480, looked up)
chain: QTSVSPSKVILPRGGSVLVTCSTSCDQPKLLGIETPLPKKELLLPGNNRKVYELSNVQEDSQPMCYSNCPDGQSTAKTFLTVYWTPERVELAPLPSWQPVGKNLTLRCQVEGGAPRANLTVVLLRGEKELKREPAVGEPAEVTTTVLVRRDHHGANFSCRTELDLRPQGLELFENTSAPYQLQTFVLPATPPQLVSPRVLEVDTQGTVVCSLDGLFPVSEAQVHLALGDQRLNPTVTYGNDSFSAKASVSVTAEDEGTQRLTCAVILGNQSQETLQTVTIYSFPAPNVILTKPEVSEGTEVTVKCEAHPRAKVTLNGVPAQPLGPRAQLLLKATPEDNGRSFSCSATLEVAGQLIHKNQTRELRVLYGPRLDERDCPGNWTWPENSQQTPMCQAWGNPLPELKCLKDGTFPLPIGESVTVTRDLEGTYLCRARSTQGEVTRKVTVNVLSPRYE
